From publication PMC12221297, “Negative regulation of miRNA sorting into EVs is mediated by the capacity of RBP PCBP2 to impair the SYNCRIP-dependent miRNA loading”

Target: PCBP2 recombinant (Origene TP522190) (Mus musculus, UniProt Q61990 1-362)
Experiment: pull-down; EMSA: REMSA binding buffer (LightShift kit), 4 ug extract, 0.5 pmol biotin-RNA, 30 min room temperature, native 6% PAGE 0.5x TBE; pull-down: streptavidin beads
Conditions: protein: commercial; label: 5' biotin

Chain of PCBP2 recombinant (Origene TP522190) (Q61990 whole entry): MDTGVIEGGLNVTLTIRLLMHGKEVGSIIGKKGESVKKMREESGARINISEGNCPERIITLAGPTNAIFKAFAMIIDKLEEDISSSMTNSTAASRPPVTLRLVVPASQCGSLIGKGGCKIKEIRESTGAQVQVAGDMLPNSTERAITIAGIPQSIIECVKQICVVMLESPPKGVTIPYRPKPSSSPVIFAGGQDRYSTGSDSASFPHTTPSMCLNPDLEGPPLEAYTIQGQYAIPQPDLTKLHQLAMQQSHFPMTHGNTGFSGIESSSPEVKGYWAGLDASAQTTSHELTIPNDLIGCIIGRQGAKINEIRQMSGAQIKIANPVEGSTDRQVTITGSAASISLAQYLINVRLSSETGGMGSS

CUCCUACCUGUUAGCAUUAAC (ssRNA) [miR-155-3p WT (Table 1: miR-155b-3p WT)]
binding result: binds
